Measurements taken from a protein production outcome set (Wang et al. 2014).

Assay: label from the status in PepcDB records

| Sequence | protein production |
| --- | --- |
| SELKPTAPPIFTGRPFVVAWDVPTQDCGPRLKVPLDLNAFDVQASPNEGFVNQNITIFYRDRLGLYPRFDSAGRSVHGGVPQNVSLWAHRKMLQKRVEHYIRTQESAGLAVIDWEDWRPVWVRNWQDKDVYRRLSRQLVASRHPDWPPDRIVKQAQYEFEFAAQQFMLETLRYVKAVRPRHLWGFYLFPDCYNHDYVQNWESYTGRCPDVEVARNDQLAWLWAESTALFPSVYLDETLASSRHGRNFVSFRVQEALRVARTHHANHALPVYVFTRPTYSRRLTGLSEMDLISTIGESAALGAAGVILWGDAGYTTSTETCQYLKDYLTRLLVPYVVNVSWATQYCSRAQCHGHGRCVRRNPSASTFLHLSTNSFRLVPGHAPGEPQLRPVGELSWADIDHLQTHFRCQCYLGWSGEQCQWDHRQAAGGASEAWAGSHLTSLLALAALAFTWTL | failed |
| MESGKREQVELMFNNISPKYDLLNRVLSLGIDKIWRKQALNLLKQDKPAHILDVATGTADLAIEAATRLKPTSVVGIDIAEDMLQIGRGKIAKKNLDKIIRLEKGDSEKINFPDNTFDAVIVSFGVRNFEHLEIGLAEIHRVLKPAGSIMVLEFSKPQNAPFKQVYQFYFKNILPTVGKLISKDSAAYTYLPDSVNAFPDGKAFCSILEKTGFTIKHYKPYTFGVCTAYVGKLEHHHHHH | failed |
| MSGGLVALLDDVAALARIAAASVDDIAAGAAKAGAKAAGVVIDDAAVTPQYVSGADPSRELPMIKRIFWGSLRNKLLIILPALLLVSAFIPGVIPFILMLGGTYLCYEGAEKVWHKLRGHSATEKAPAVQRGPEAEAKVTKGAITTDFILSCEIMVIAMNEVADESLWVRALILVVVAFVITVVVYGAVGLIVKMDDIGLHLTTKASSGSQRFGRLLVKGMPAVLAAITLIGTIAMLWVGGHIMLQGAYDLGWHAPYDLVHVLETPFAGIPVAGGFLAWLVNTLCSAILGAVWGLVIMVILHPLLKVLPFGKKHEGHEEGDVRAAIAGYRPAKSKPTR | failed |
| MTNNSTKVCVLLATYNGTKWCLDQVKSILNQEDVNLEVFVSDDLSSDSTTDLLALLNDSRIHILASSYKFGSACQNFFRLVRDVDFSEYDYIAFADQDDLWNPNKLSYSIEQLNAHCADAFSSNVTAFWPDGRARLIVKDQPQREWDFLFESAGPGCTFVLTKKLACNLANFLHNNYEKTKGVALHDWFTYAFARSNSYSWWIDSQPTMMYRQHESNEFGVNSGVTAALSRFRKTSNGWYRNQVILIGDLVGAEDSWPIKRMRRFSLLDRMLLLFNVFAFRRSFRDRIALFFLLLLPQKKLEHHHHHH | not failed |
| MIMLNKQGITISLCMIVRDEEETIARCLETVEKIVDEIIVVDTGSVDRTKEIVEKYTSNIYDFQWIDDFAAARNFSFSKATQEYILWLDADDVLLEDAQEALKLLKRELDPKIDAVSMPYHLAMDSNGKPLYCTKRNRLVKREKQFQWFGKVHEYLAISGEVFSSNVAITHKKEKKVTNRNLKIFQNTVAAGEELSPRDLFYYANESTDNQKYDDAVLLYETFLNQDEGWYEEKIYACGKLGDCYAKLGMWEKAIESCVKSFRYDVPRGENCTRIGYIYMEQEKYNEAIFWFKLATEVPMATESPFHSPASYTWLPYLQMCICYSRLGEQDKAYYYNELAASYVPNNAAIEYNRKYFRGVFDKPYKV | failed |
| MRTLVAPTHAPKRRMLLALLATPALALAQPAWTQQPPPVKLDVPYVPTPDDAVARMLEMADVTAQDTVIDLGSGDGRIAIAAVRDRGARSAMGVDIDPERIAEARANARKAGLADRVTFVQQDLFDTDISKATVLTMYLLPDVNLKLRPRILNSLAPGTRVVSHAFTMGEWDSDRYELVDGRSLYLWVVPAHAAGDWQVEDPAGPFTLSVRQDFQKVTASAQRQGERLGVAEAALRGTDLRFTVDAGSGPRTYVGRIQGDRMTAVQAPGNESGWRATRRAP | failed |
| RQKLLADFGEFALSNDNLADILTEACRLVGNALGTQRANVLEIEPSKRSLFVRAGVGLDDGIVGKLRLPMREIASERFSPDGSPLDIIHDVHTEPQYDLAAFMEVAGVVALVNVPILLPGRTLYGLLQVESSEPREFSQDDVEFLRTYSTILGPVIDRLNKVRALRDAEERFRLIVEAAR | failed |
| MELPSFIFQAQENLVERPWGGEWIALLKGFRQSGIGESWEFSAHTSRPSTVLVKGQQLSMIELFSKHRDELLGRAAEKFSKFPILVRLIDAASPTQVHVHPSDKAAESLGEAEGGVESAWLVFNKGKAYAGFKEDVKIEELEEKLKEEDFDFKTLLNTFETTPYDTFVIRPGIPHAGEGLRVLEVSSNSTLAYFFNENDWEKVKKVLNTKKVEEFEVKGKKGMAETENFGLEVVDVTGTAEIKTGGVMNILYAAEGYFILRGKETADLHRGYSCLVPASTDSFTVESERGKIVRIYLKV | not failed |
| MTADGRGRIDAAFRGRLGRFVLDASLSVPATGVTAIFGPSGCGKTTIARCIAGLQRLSDGFCAIDGEIWQDGMAFRPAHRRPVGYVFQEPSLFPHLSVRGNLLYGAPKAAATSIGFDEVVELLGLTALLGRSPHRLSGGERQRVAIGRALLSQPRLLLMDEPLAALDRTTKNEILPFLERLHERLSLPVLYISHDMAEIERFADYLVLMERGRVVGAGPLHILQSDPALPLAYSRDAAVSIDGLVEAYDERYGLLTLAVNGGLLHVPSHRIAVGARQRLRIAASDVSIVRARPSESSILNILPARIVTQSPPGAGEVTIVLGLDSDGSGAPILSRISSRSRDLLGLSDGMAVFAQVKGVSLVRASGCAIGNMGPTAPGQLDHCSTQDTGVRSEAGTTAMPIDFAEIDPNRVAAILYRPQDDLDTLLADFAQDLVRAGERIGGIVQRNIKDGSGCQVGMQAIDLMTGREISICQPLGSGAMACKLDAAGLADASVAVASAIAQDVDLIVINKFSKQEAAGRGLRDELAGAIAAGIPVLTAVPEKCFEAWISFTGGIGTTLLCERQVIEAWWRDTSSRMKRMREDHDAVVAQCIEISGALPLVQRVVARQLVVTHDLPLDPERAEAEVVVRGVVERTNVEVLDGAADEADEAPDAGFPVGPERIERLPDIGPVPRRHEALQVEREVLSPDACLQRSAGERVDVFKEGKTKVGTVLVDRGDAELVEGPIVLELHEGAPVLVEMNVGVDLQTLYEIAVRGRVAGAERRCAIGLEAFAQRRPQRDVAFRIGGPKRDVFEPVKRFGTQPGIGKDRPVLCPAVRLDRRPLGDRSVLGPREPDAGAKGRKRQNDPEVAHIAPCQHRRTSPHLASARDALFGPREWISATYPPGNMTNAADRLLDV | failed |
| MKRFPFRPRLLVTVSLVALLLPGCASKPNNLKPSMPEPRLGVASENPGKPKKGKQASSGSQYDTLWERMFSLYALPQVEHRSVEREVSWFINHPDYLKRAQKRAEPFLYTIVRQLEKQKMPGELALLPIVESAFQPHAVSPARAAGIWQFIPETGRRYGLKRSRSYDGRRDVYASTRAAIKYLKKLHNDFNGDWLLAIAAYNCGEGAVAKAIQRNEARNLPTDFWSLDLPDETKAYVPRLLAVSKVFANADKYAIDLHYIPNEAIFKPVKVSSQLDLALAADAADMSLERMLELNPGFKHPHADIEGSYRLFVPADKSRKFKKELARLAMSGQFDSHPPADEGDGSTGFGHRGSLETATEDDAAPGRERSVRKPVVSGYGAEYAVPSRSAERGGPAKDSSRSERWQSVETPSRGGSAVVAHLRDGSRLRDVWGREHGQEDKPLKGNRRPDERLGLSSKANPNRKEGGRKVAGGSALSREEALREERGDRGKEKHAISIPFDERHGGGIKASQSIRHTVKPGETLFAISQRFGVSVADLRKWNGVKENKLEAGRNIRVSAGKD | failed |
| MLANQIKYVILHLTQSIIEYSMANLNCIKAVLAEKGIMSKWLAKTLKKDPATVSKWCNNHSQPDLYTLARIAEVLDVDIHKLICHTKEE | failed |
| MEIIAAILVGIVALEHLFIMILEMFFMNSKVAKRAFKLPEHLEGDRNVAIMFANQGLYNGFLAVGLIWGLILGFNSIGYMVQLFFVMCVVVAALFGGFTSNKSIIVKQGLPAILALIALLIVI | failed |
| MALTPDQMPDRAEVVFTCNGKAVGKMRNELDVAMVKPFEERFALATDEGAFHGGDASAPPPLALFIAGLTGCVMTQIRAFAKRLKVTVTDLDVECRVVWDWAKAGPVYETGPKSFEIDIILHSPDPIEAQQALIEAAKKGCFLEQTLGQANTIRHRLKVGDTFIDA | not failed |
| MFKVLQCLTIDHDYRYTAAAVVVCMLGSFVTMRLFSKARLATGLQKVNWLFLAGVNGGAAIWTTHFVAMLGYVAAGDVGYDPYLTGLSLLIAITTTTAGFGISAYGGRSVLVEAGGTILGLGIAAMHYTGMAAYNVQGMIFWDQAYVIASLVLGSVLGAIAVNRIARPLNRFCQYSAVAFLILAIASMHYTGMASMSFAFDPRIIIPENLLPPAIMGGGAIAVTLLLLALGLSTYVIDAQSTQQAVARYRHLSLHDPLTGIPNRAAFIEHLNRRTRHISMGAHTALLSIDLDRFKEINDVHGHAAGDAVLRAIADRASSVLKAGEFLARMGGDEFVAMTHSYYTRADGAEFAQRLIEQISKPVEWNGQTFSVGASVGISVRNTGSIDADTLMAQADVAMYRAKSATSDTICFYDKSMDEAARARNALAIAMRSGLANNEFELYYQQQNDTKSGSIVGFEALLRWKHPERGMVSPVEFIPIAEQTGFIVELGEWVLREACAQAARWKKSLAIAVNVAPQQLADNDFPDKVERILAETGLAPERLELEITEGSIIADHRHALVTIRKLKSLGVKIAMDDYGTGYSSLSTLQSFPFDKIKIDRAFIDGLSTNVQSEAIVRSTLILAHSLNIPVLAEGVETKAHIEFLRREGCLQVQGFFFGKPGPLTSIANLVDDTFLSAEDETEEASGRRYIKVVR | failed |
| MPDLTRRNFSNLLSFPMPDTRPAKAGGQPRPFFRLGVVRFGLATALALFWVGAFASTATGQRTSRTPDQLENVGVDQKLGATIPKDLSFQNEQGEPVRLSQYFDGSTPVMLTLNYHRCPQLCRIQLQKFTKSLSGMSWTAGDKFKVLTVDISPYEGPKMARKAQERYATFLDRPEETVDGWHFLTGNQAAIETLTDSVGFRYQPLPEKEKQFAHPTTIIFLSGDGTITRYFTTLDPAPGDLRTALVEASDGTVGNVVDKAFLACARFNPDSNSYSASAFKLMQYGSVLTVIVMGAALFVFWRRENEQLETAHEEGLNAMVDEQA | failed |
| MIEDKFMRVLLMFDVPTKSKKEQKLASKFRNNLIKLGYFMLQFSVYMRICKGLSSAKSSIENVKKILPPYGNVRALIITEKQFDKMELLLGGIVFNEKVNNETNLTLFDIDSHGEFKYKNSNNEEIQINKKQEKYHQQNLFEFLEHHHHHH | failed |
